Results reported in US20230364000A1, “COMPOSITIONS COMPRISING COMBINATIONS OF COLLAGEN OR ELASTIN POLYPEPTIDES WITH ACTIVE INGREDIENTS AND METHODS OF USING SAME” (Geltor, Inc., priority 2020, published 2023).

Assays:
[1] = test system: Human full-thickness skin equivalents (MatTek Epiderm FT co-culture tissue models); assay: Fibronectin production in human full-thickness skin equivalents (ELISA); format: cell-based; conditions: polypeptide 0.1% w/w, FIG. 19; for production of fibronectin as compared to untreated cells: each agent alone, day 4, retinol (10, unit not given), ascorbic acid 2% w/w, hyaluronic acid 0.1% w/w
[2] = test system: Human full-thickness skin equivalents (MatTek Epiderm FT co-culture tissue models); assay: Type I collagen production in human full-thickness skin equivalents (pro-collagen type I C-peptide ELISA); format: cell-based; conditions: polypeptide 0.1% w/w, FIG. 18; for production of type I collagen as compared to untreated cells: each agent alone, day 4, retinol (10, unit not given), ascorbic acid 2% w/w, hyaluronic acid 0.1% w/w
Procedure: Human full-thickness skin equivalents (MatTek Epiderm FT co-culture tissue models) which contain keratinocytes and fibroblasts were treated with a 0.1% w/w truncated human type 21 collagen polypeptide (having an amino acid sequence of SEQ ID NO: 16) (“C21”; FIG. […] Culture medium was changed every 2 days. On day 4, supernatant was collected and analyzed by enzyme-linked immunosorbent assay (ELISA) for pro-collagen type I C-peptide, which is a readout for total secreted collagen type I protein.

[3] = test system: Human full-thickness skin equivalents (MatTek Epiderm FT co-culture tissue models); assay: Elastin production in human full-thickness skin equivalents (ELISA); format: cell-based; conditions: polypeptide 0.1% w/w, retinol (10, unit not given), ascorbic acid 2% w/w, FIG. 20; for increase of elastin production relative to untreated control: day 2 supernatant; for production of elastin as compared to untreated cells: each agent alone, day 2, hyaluronic acid 0.1% w/w
From the text: The combination of the truncated human type 21 collagen polypeptide with retinol increased elastin production by 45% relative to untreated control. This appeared to be a synergistic effect as treatment with truncated human type 21 collagen polypeptide alone increased elastin production by 20% and treatment with retinol alone increased elastin production by 17%. The combination of the truncated human type 21 collagen polypeptide with ascorbic acid increased elastin production by 33% relative to untreated control. This appeared to be a synergistic effect as treatment with truncated human type 21 collagen polypeptide alone increased elastin production by 20% and treatment with ascorbic acid alone increased elastin production by 5%.

[4] = test system: Human full-thickness skin equivalents (MatTek Epiderm FT co-culture tissue models); assay: Type III collagen production in human full-thickness skin equivalents (pro-collagen type III N-peptide ELISA); format: cell-based; conditions: polypeptide 0.1% w/w, ascorbic acid 2% w/w, FIG. 21; for production of type III collagen as compared to untreated cells: each agent alone, day 2, retinol (10, unit not given), hyaluronic acid 0.1% w/w
[5] = test system: human primary keratinocytes; assay: Thymine dimers in UVB-irradiated keratinocytes (OxiSelect UV-Induced DNA Damage ELISA); format: cell-based; conditions: 25 mJ/cm^2 UVB, then overnight with 0.03%; compared with untreated cells; FIG. 11
Procedure: In a further study, human primary keratinocytes were irradiated with 25 mJ/cm^2 UVB light, then incubated overnight in media with 0.03% of a polypeptide of SEQ ID NO: 5. DNA was extracted from the cells and analyzed for levels of thymine dimers (an indicator of DNA damage) using an OxiSelect UV-Induced DNA Damage ELISA kit.

[6] = Oxygen radical absorbance capacity (ORAC) assay, cell-free; format: biochemical; conditions: for anti-oxidative capacity (ORAC): FIG. 25
Procedure: The antioxidant potential of a polypeptide of SEQ ID NO: 16 was assessed using the oxygen free radical absorbance capacity (ORAC) assay. The ORAC assay is a cell-free assay that uses a fluorescent readout to measure a product's antioxidant capacity. Data is reported in Trolox (Vitamin E) equivalents.
A polypeptide of SEQ ID NO: 5 was also evaluated in the ORAC assay.
An oxygen radical absorbance capacity (ORAC) assay was performed to analyze the anti-oxidative capacity of a polypeptide according to SEQ ID NO: 52. The ORAC assay is a cell-free assay that uses a fluorescent readout to measure anti-oxidative capacity. Data is reported in Trolox (Vitamin E) equivalents (TEs).

[7] = test system: in vitro full thickness human skin tissue model (MatTek); assay: IL-la ELISA in UVB-irradiated full thickness human skin tissue model; format: cell-based; conditions: 300 mJ/cm^2 UVB, then 0.01% for 24 hours; compared to untreated UVB-irradiated control; FIG. 14
Procedure: In a further study with the in vitro full thickness human skin tissue model (MatTek), the MatTek tissue models were irradiated with 300 mJ/cm^2 UVB light, then treated with 0.01% of a polypeptide of SEQ ID NO: 5 for 24 hours. Levels of pro-inflammatory cytokine IL-la was determined by ELISA.

facial skin [8] = assay: Facial skin hydration, clinical study of Example 7; format: in vivo, human; conditions: topical facial cream 0.05%, n=18, FIG. 16
From the text: (§1) In a clinical study (n=18 subjects), subjects used a topical facial cream containing 0.05% of a polypeptide of SEQ ID NO: 5 for 2 weeks.

[9] = test system: human primary keratinocytes; assay: MTT viability of UVB-irradiated keratinocytes, post-irradiation treatment; format: cell-based; conditions: 40 mJ/cm^2 UVB, then 48 hours with 0.03%; compared with untreated UVB-irradiated keratinocytes; FIG. 12
Procedure: Human primary keratinocytes were irradiated with 40 mJ/cm^2 UVB light, then incubated for 48 hours in media with 0.03% of a polypeptide of SEQ ID NO: 5. Cell viability was evaluated using the MTT metabolic colorimetric assay.

[10] = test system: in vitro full thickness human skin tissue model (MatTek); assay: Collagen type I secretion by full thickness human skin tissue model (pro-collagen type I C-peptide ELISA); format: cell-based; conditions: treatment 48 hours, fresh media another 48 hours (96 hour timepoint); compared with untreated tissue models or positive control Vitamin B3; FIG. 10
Procedure: A series of in vitro experiments were conducted to assess the effects of a truncated jellyfish collagen on human skin fibroblasts and keratinocytes. An in vitro full thickness human skin tissue model (MatTek) which contains fibroblasts and keratinocytes was evaluated for collagen type I secretion after treatment with a polypeptide of SEQ ID NO: 5 for 48 hours. The tissue models were then rinsed and incubated with fresh media for another 48 hours (96 hour timepoint). The culture supernatants were analyzed by ELISA for pro-collagen type I C-peptide (a readout for total secreted collagen type I protein).

[11] = test system: human primary keratinocytes; assay: MTT viability of keratinocytes exposed to urban dust; format: cell-based; conditions: pre-treated with 0.03% for 24 hours, then 2 mg/ml urban dust (NIST 1649B) for 24 hours; compared with untreated exposed keratinocytes; FIG. 13
Procedure: To test for protection from urban dust, human primary keratinocytes were pre-treated with 0.03% of a polypeptide of SEQ ID NO: 5 for 24 hours, and then exposed to 2 mg/ml urban dust (NIST 1649B) for 24 hours. Cell viability was evaluated using the MTT metabolic colorimetric assay.

facial skin [12] = assay: Cutometer facial skin elasticity, clinical study of Example 7; format: in vivo, human; conditions: topical facial cream 0.05%, n=18, FIG. 17
From the text: as §1

Keratinocytes = assay: Clariom microarray global gene expression in keratinocytes; format: cell-based; conditions: 0.03% w/w solution, 24 hours, relative to untreated cells
Procedure: Keratinocytes were incubated for 24 hours with media alone or with 0.03% w/w solution of a polypeptide according to SEQ ID NO: 52. RNA was extracted from the cells and analyzed by Clariom microarray (ThermoFisher) for global gene expression.
Keratinocytes were incubated for 24 hours with media alone (untreated) or with 0.03% w/w solution of a polypeptide according to SEQ ID NO: 52. RNA was extracted from the cells and analyzed by Clariom microarray (ThermoFisher) for global gene expression.

[13] = test system: human primary fibroblasts; assay: Fibroblast collagen type I protein secretion with truncated elastin (pro-collagen type I C-peptide ELISA); format: cell-based; conditions: 48 hours, compared with untreated control fibroblasts, FIG. 24
Procedure: Fibroblasts are the main source of the extracellular matrix peptides, including the structural proteins collagen and elastin. Human primary fibroblasts were evaluated for collagen type I protein secretion. Fibroblasts were cultured with a polypeptide according to SEQ ID NO: 52 for 48 hours. The culture supernatants were analyzed by ELISA for pro-collagen type I C-peptide, a readout for total secreted collagen type I protein.

[14] = test system: Human primary fibroblast cultures; assay: Fibroblast elastin production (ELISA kit); format: cell-based; conditions: 0.03% w/w solution; 24 hours; compared to media alone; FIG. 28
Procedure: Human primary fibroblast cultures were treated for 24 hours with media alone (untreated) or with 0.03% w/w solution of a polypeptide having an amino acid sequence according to SEQ ID NO: 52. Supernatants were collected and evaluated for elastin production using an ELISA kit.

[15] = day 4 supernatant, hyaluronic acid 0.1% w/w (low molecular weight, 15-40 kDa)

O=C1O[C@H]([C@@H](O)CO)C(O)=C1O [ascorbic acid]
production of fibronectin as compared to untreated cells [1]: increased production
production of type I collagen as compared to untreated cells [2]: increased production
increase of elastin production relative to untreated control [3]: 5%
production of elastin as compared to untreated cells [3]: increased production
increase of type III collagen production relative to untreated control ([4]; day 2 supernatant): 80%
production of type III collagen as compared to untreated cells [4]: increased production

CC1=C(/C=C/C(C)=C/C=C/C(C)=C/CO)C(C)(C)CCC1 [retinol]
production of fibronectin as compared to untreated cells [1]: increased production
production of type I collagen as compared to untreated cells [2]: increased production
increase of elastin production relative to untreated control [3]: 17%
production of elastin as compared to untreated cells [3]: increased production
production of type III collagen as compared to untreated cells [4]: increased production

hyaluronic acid
increase of fibronectin production relative to untreated control [1, 15]: 30%
production of fibronectin as compared to untreated cells [1]: increased production
increase of type I collagen production relative to the untreated control [2, 15]: 72%
production of type I collagen as compared to untreated cells [2]: increased production
production of elastin as compared to untreated cells [3]: increased production
production of type III collagen as compared to untreated cells [4]: increased production

B1: SEQ ID NO: 5: truncated jellyfish collagen without a His tag, linker, and thrombin cleavage site (protein)
chain: GPQGVVGADGKDGTPGNAGQKGPSGEPGSPGKAGSAGEQGPPGKDGSNGEPGSPGKEGERGLAGPPGPDGRRGETGSPGIAGALGKPGLEGPKGYPGLRGRDGTNGKRGEQGETGPDGVRGIPGNDGQSGKPGIDGIDGTNGQPGEAGYQGGRGTRGQLGETGDVGQNGDRGAPGPDGSKGSAGRPGLR
level of thymine dimers (DNA damage) [5]: lower level
antioxidant properties, Trolox (Vitamin E) equivalents ([6]; 0.1% solution): 193 μM Trolox
levels of IL-la [7]: lower levels
skin hydration (facial skin [8]; 1 week vs baseline): increased
skin hydration (facial skin [8]; 2 weeks vs baseline): increased
skin hydration relative to topical application of marine collagen (facial skin [8]; baseline, 1 week and 2 weeks): increased skin hydration
cell viability (MTT) [9]: higher cell viability
secreted collagen type I (pro-collagen type I C-peptide) [10]: higher levels
cell viability (MTT) after urban dust exposure [11]: higher cell viability
skin elasticity (cutometer) (facial skin [12]; 1 week vs baseline): increased
skin elasticity (cutometer) (facial skin [12]; 2 weeks vs baseline): increased

B2: SEQ ID NO: 52: 13 kDa non-naturally occurring truncated human elastin without the DsbA secretion tag (protein)
chain: AGLGGVPGVGGLGVSAGAVVPQPGAGVKPGKVPGVGLPGVYPGGVLPGARFPGVGVLPGVPTGAGVKPKAPGVGGAFAGIPGVGPFGGPQPGVPLGYPIKAPKLPGGYGLPYTTGKLPYGYGPGGVAGAAGKAGYPTGTGVGPQ
expression of antioxidant genes, including SOD2, GPX2, GPX4, GSTK1, GSTZ1, GSTA4, GSTM2, CCS, GPX1, GLRX, PRDXS, PRDX6, and PRDX2 (Keratinocytes; FIG. 26): upregulated
expression of pro-apoptotic genes, including APAF1, BAK1, CASP7, CASP8, FADD, MCL1, and MET (Keratinocytes; FIG. 27): downregulated
anti-oxidative capacity (ORAC) ([6]; 0.0125% w/w solution): anti-oxidative properties
anti-oxidative capacity (ORAC) ([6]; 0.025% w/w solution): anti-oxidative properties
anti-oxidative capacity (ORAC) ([6]; 0.05% w/w solution): anti-oxidative properties
anti-oxidative capacity (ORAC) ([6]; 0.1% w/w solution): anti-oxidative properties
anti-oxidative properties, Trolox (Vitamin E) equivalents ([6]; 0.2% w/w solution): 228 μM Trolox
anti-oxidative capacity (ORAC) ([6]; 0.2% w/w solution): anti-oxidative properties
secreted collagen type I (pro-collagen type I C-peptide) ([13]; 0.025% w/w solution): higher levels
secreted collagen type I (pro-collagen type I C-peptide) ([13]; 0.05% w/w solution): higher levels
secreted collagen type I (pro-collagen type I C-peptide) ([13]; 0.1% w/w solution): higher levels
production of elastin [14]: increased production
